In patent publication US20120213801:

How the values were obtained:
[1] = test system: T1, Flag-tagged Twist-1 WT from starved HEK293 cells (not phosphorylated)
T1 sequence: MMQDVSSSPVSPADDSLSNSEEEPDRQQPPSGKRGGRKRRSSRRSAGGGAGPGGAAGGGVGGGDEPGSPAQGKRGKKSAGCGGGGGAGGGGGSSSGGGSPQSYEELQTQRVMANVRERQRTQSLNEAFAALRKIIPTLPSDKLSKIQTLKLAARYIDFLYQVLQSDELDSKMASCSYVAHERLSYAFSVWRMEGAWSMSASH

[2] = biological target: T2, GST-Twist-1 (full-length, substrate of the in vitro kinase assay)
T2 chain: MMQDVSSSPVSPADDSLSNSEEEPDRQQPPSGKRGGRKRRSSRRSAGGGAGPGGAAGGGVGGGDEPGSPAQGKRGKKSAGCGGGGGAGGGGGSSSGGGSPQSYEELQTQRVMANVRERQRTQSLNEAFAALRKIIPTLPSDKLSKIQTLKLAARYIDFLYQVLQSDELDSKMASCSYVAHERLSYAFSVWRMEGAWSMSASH

RERQRAQSLNEA-T121A = biological target: T3, RERQRAQSLNEA-T121A
T3 chain: RERQRAQSLNEA

RERQRTQALNEA-S123A = biological target: T4, RERQRTQALNEA-S123A
T4 chain: RERQRTQALNEA

RERQRTQSLNEA-T121/5123 = biological target: T5, RERQRTQSLNEA-T121/5123
T5 chain: RERQRTQSLNEA

RKRRSARRSAGG-S42A = biological target: T6, RKRRSARRSAGG-S42A
T6 chain: RKRRSARRSAGG

RKRRSSRRAAGG-S45A = biological target: T7, RKRRSSRRAAGG-S45A
T7 chain: RKRRSSRRAAGG

RKRRSSRRSAGG-S42/S45 = biological target: T8, RKRRSSRRSAGG-S42/S45
T8 chain: RKRRSSRRSAGG

Molecule: endogenous PKB kinase of HEK293 cells
- Twist-1 S42 phosphorylation after serum stimulation (Western blot; shRNA against PKB) [1]: Twist-1 S42 phosphorylation was not induced after serum stimulation of cells with a low PKB content

B1: activated recombinant PKBβ (protein)
chain: KVTMNDFDYLKLLGKGTFGKVILVREKATGRYYAMKILRKEVIIAKDEVAHTVTESRVLQNTRHPFLTALKYAFQTHDRLCFVMEYANGGELFFHLSRERVFTEERARFYGAEIVSALEYLHSRDVVYRDIKLENLMLDKDGHIKITDFGLCKEGISDGATMKTFCGTPEYLAPEVLEDNDYGRAVDWWGLGVVMYEMMCGRLPFYNQDHERLFELILMEEIRFPRTLSPEAKSLLAGLLKKDPKQRLGGGPSDAKEVMEHRFFLSINWQDVVQKKLLPPFKPQVTSEVDTRYFDDEFTAQSITITPPDRYDSLGLLELDQRTHFPQFSYSASIRE
- in vitro kinase assays followed by mass spectrometry (MS) analysis [2]: confirmed that PKB phosphorylates Twist-1 in vitro on two residues S42 and S123
- phosphorylation of synthetic peptide (in vitro kinase assay, 32P-ATP, scintillation counting); no such loss, by implication (RERQRAQSLNEA-T121A): Only substitution of serine to alanine at positions 42 and 123 resulted in almost complete loss of phosphorylation of the corresponding peptide by PKB
- phosphorylation of synthetic peptide (in vitro kinase assay, 32P-ATP, scintillation counting); almost complete loss (RERQRTQALNEA-S123A): Only substitution of serine to alanine at positions 42 and 123 resulted in almost complete loss of phosphorylation of the corresponding peptide by PKB
- phosphorylation of synthetic peptide (in vitro kinase assay, 32P-ATP, scintillation counting); parent peptide, phosphorylated by implication (RERQRTQSLNEA-T121/5123): Only substitution of serine to alanine at positions 42 and 123 resulted in almost complete loss of phosphorylation of the corresponding peptide by PKB
- phosphorylation of synthetic peptide (in vitro kinase assay, 32P-ATP, scintillation counting); almost complete loss (RKRRSARRSAGG-S42A): Only substitution of serine to alanine at positions 42 and 123 resulted in almost complete loss of phosphorylation of the corresponding peptide by PKB
- phosphorylation of synthetic peptide (in vitro kinase assay, 32P-ATP, scintillation counting); no such loss, by implication (RKRRSSRRAAGG-S45A): Only substitution of serine to alanine at positions 42 and 123 resulted in almost complete loss of phosphorylation of the corresponding peptide by PKB
- phosphorylation of synthetic peptide (in vitro kinase assay, 32P-ATP, scintillation counting); parent peptide, phosphorylated by implication (RKRRSSRRSAGG-S42/S45): Only substitution of serine to alanine at positions 42 and 123 resulted in almost complete loss of phosphorylation of the corresponding peptide by PKB
